# Reference: publication PMC9695418, “The Synthesis and Preclinical Investigation of Lactosamine-Based Radiopharmaceuticals for the Detection of Galectin-3-Expressing Melanoma Cells” (Pharmaceutics, 2022)
# How the values were obtained:
# [1] = test system: subcutaneous B16-F10 tumors; conditions: mouse, in vivo
# Method: (§1) After in vivo PET imaging (100 min post injection), control and B16-F10 tumor-bearing mice were euthanized with 5% isoflurane (Forane, AbbVie, Budapest, Hungary; OGYI-T-1414/01). For the assessment of the radiotracer uptake, the radioactivity concentration (%ID/g tissue) of the selected organs was measured with a calibrated gamma counter (Perkin-Elmer Packard Cobra, Waltham, MA, USA) (Supplementary Material Table S1).
# in vivo [2] = conditions: C57BL/6, mouse, iv, total radioactivity
# Method: as §1
# in vivo [3] = experiment: in vivo; parameters: species or system C57BL/6 mice; conditions: C57BL/6, mouse, iv, total radioactivity
# Excerpt: As part of the ex vivo biodistribution studies—after PET imaging—the sacrifice of the experimental animals occurred followed by the gamma counter-based measurement of the radioactivity of the organs and tissues (Figure 7).
# Significance level between the [^68Ga]Ga-DOTAGA-LacN(NAP) and the two other investigated radiotracers: p ≤ 0.01 (*).
# in vivo [4] = conditions: C57BL/6, mouse, iv, total radioactivity, SUVmean of the liver
# Method: Both normal control and B16-F10 tumorous mice were iv. administered with 6.8 ± 0.9 MBq [^68Ga]Ga-DOTAGA-LacN(NAP), [^68Ga]Ga-DOTAGA-LacN(NAP)-cRGDfK, or [^68Ga]Ga-DOTAGA-cRGDfK in 120 μL saline through the lateral tail vein.
# human galectin-3 CRD = conditions: fold greater affinity than lactose; cited from earlier work
# [5] = ex vivo biodistribution: bone (femur)
# [6] = ex vivo biodistribution: kidney
# [7] = ex vivo biodistribution: large intestine
# [8] = ex vivo biodistribution: muscle
# [9] = ex vivo biodistribution: pancreas
# [10] = ex vivo biodistribution: salivary glands
# [11] = ex vivo biodistribution: small intestine
# [12] = ex vivo biodistribution: spleen
# [13] = uptake in subcutaneous B16-F10 tumors
SMILES,B16-F10/Liver ratio (T/L) [1],B16-F10/Muscle ratio (T/M) [1],tissue uptake at 100 min (in vivo [2]; ex vivo biodistribution: blood) [%ID/g],tissue uptake at 100 min (in vivo [2]; [5]) [%ID/g],tissue uptake at 100 min (in vivo [2]; ex vivo biodistribution: brain) [%ID/g],tissue uptake at 100 min (in vivo [2]; ex vivo biodistribution: fat) [%ID/g],tissue uptake at 100 min (in vivo [2]; ex vivo biodistribution: heart) [%ID/g],tissue uptake at 100 min (in vivo [2]; [6]) [%ID/g],tissue uptake at 100 min (in vivo [2]; [7]) [%ID/g],tissue uptake at 100 min (in vivo [2]; ex vivo biodistribution: liver) [%ID/g],tissue uptake at 100 min (in vivo [2]; ex vivo biodistribution: lungs) [%ID/g],tissue uptake at 100 min (in vivo [2]; [8]) [%ID/g],tissue uptake at 100 min (in vivo [2]; [9]) [%ID/g],tissue uptake at 100 min (in vivo [2]; [10]) [%ID/g],tissue uptake at 100 min (in vivo [2]; [11]) [%ID/g],tissue uptake at 100 min (in vivo [2]; [12]) [%ID/g],tissue uptake at 100 min (in vivo [2]; [13]) [%ID/g],SUV at 80 min (in vivo [4]) [SUV],further results
"N=C(N)NCCC[C@@H]1NC(=O)[C@H](CCCCNC(=O)CCOCCOCCOCCOCCNC(=O)CCC(=O)N2Cc3ccccc3-c3c(nnn3CCCO[C@@H]3O[C@H](CO)[C@@H](O[C@@H]4O[C@H](CO)[C@H](O)[C@H](OCc5ccc6ccccc6c5)[C@H]4O)[C@H](O)[C@H]3NC(=S)Nc3ccc(CNC(=O)CCC(C(=O)O)N4CCN(CC(=O)O)CCN(CC(=O)O)CCN(CC(=O)O)CC4)cc3)-c3ccccc32)NC(=O)[C@@H](Cc2ccccc2)NC(=O)[C@H](CC(=O)O)NC(=O)CNC1=O (stereo partly drawn) [[^68Ga]Ga-DOTAGA-LacN(NAP)-cRGDfK, metal not drawn]",0.45 ± 0.11,3.43 ± 1.09,0.58 ± 0.14,0.54 ± 0.21,0.06 ± 0.01,0.17 ± 0.13,0.61 ± 0.17,6.14 ± 1.14,1.74 ± 0.7,2.19 ± 0.73,1.54 ± 0.62,0.27 ± 0.07,0.43 ± 0.12,1.34 ± 0.5,1.77 ± 0.96,1.6 ± 1.17,0.8 ± 0.23,1.25 ± 0.18,tissue uptake at 100 min (in vivo [3]; accumulation in the gall bladder): 3.07 ± 2.1 %ID/g; tissue uptake at 100 min (in vivo [3]; accumulation in the intestines): ~1.7 %ID/g; tissue uptake at 100 min (in vivo [3]; accumulation in the stomach): 1.7 ± 0.71 %ID/g
"N=C(N)NCCC[C@@H]1NC(=O)[C@H](CCCCNC(=S)Nc2ccc(CNC(=O)CCC(C(=O)O)N3CCN(CC(=O)O)CCN(CC(=O)O)CCN(CC(=O)O)CC3)cc2)NC(=O)[C@@H](Cc2ccccc2)NC(=O)[C@H](CC(=O)O)NC(=O)CNC1=O (stereo partly drawn) [[^68Ga]Ga-DOTAGA-cRGDfK, metal not drawn]",0.35 ± 0.14,4.54 ± 1.24,0.37 ± 0.05,0.26 ± 0.04,0.03 ± 0.01,0.19 ± 0.08,0.26 ± 0.06,2.43 ± 0.26,0.55 ± 0.16,1 ± 0.25,0.66 ± 0.18,0.1 ± 0.01,0.18 ± 0.06,0.54 ± 0.18,0.78 ± 0.2,0.8 ± 0.09,0.35 ± 0.12,0.59 ± 0.08,tissue uptake at 100 min (in vivo [2]; ex vivo biodistribution: gall bladder): 0.84 ± 0.29 %ID/g; tissue uptake at 100 min (in vivo [2]; ex vivo biodistribution: stomach): 0.69 ± 0.21 %ID/g
CC(=O)N[C@H]1C(O)O[C@H](CO)[C@@H](O[C@@H]2O[C@H](CO)[C@H](O)[C@H](O)[C@H]2O)[C@@H]1O (stereo partly drawn) [N-acetyl-lactosamine],,,,,,,,,,,,,,,,,,,affinity for the CRD of galectin-3 compared to the lactose molecule (human galectin-3 CRD): 5 fold
